Substrate in series [1]: CC(C)O
Description: purified protein, by the assay type. It counts as biochemical, Clostridium beijerinckii. As to conditions: other: cofactor NADP+ (1 mM); enzyme 110 nM.

Substrate in series [2]: CC1=NCCC1
Kind of series: Kinetics of parental MsIRED, 2-methylpyrroline reduction with NADPH. Particulars: other: cofactor NADPH (0.25 mM); enzyme 1.2 uM. It counts as biochemical, Myxococcus stipitatus.

Substrate in series [3]: CC1=NCCC1
Kind of series: Kinetics of evolved MsIRED-s, 2-methylpyrroline reduction with NADH. It counts as biochemical, Myxococcus stipitatus. As to conditions: other: cofactor NADH (0.25 mM); enzyme 1.25 uM.

B1: Clostridium beijerinckii alcohol dehydrogenase (CBADH), wild type, SEQ ID NO: 1 (Clostridium beijerinckii) (protein)
chain: MKGFAMLGINKLGWIEKERPVAGSYDAIVRPLAVSPCTSDIHTVFEGALGDRKNMILGHEAVGEVVEVGSEVKDFKPGDRVIVPCTTPDWRSLEVQAGFQQHSNGMLAGWKFSNFKDGVFGEYFHVNDADMNLAILPKDMPLENAVMITDMMTTGFHGAELADIQMGSSVVVIGIGAVGLMGIAGAKLRGAGRIIGVGSRPICVEAAKFYGATDILNYKNGHIVDQVMKLTNGKGVDRVIMAGGGSETLSQAVSMVKPGGIISNINYHGSGDALLIPRVEWGCGMAHKTIKGGLCPGGRLRAEMLRDMVVYNRVDLSKLVTHVYHGFDHIEEALLLMKDKPKDLIKAVVIL
For B1, in series [1], the Km is 5.80 mM mM and the kcat is reported as 1185.6 min-1 min-1.

B2: Myxococcus stipitatus imine reductase (MsIRED), wild type, SEQ ID NO: 34 (Myxococcus stipitatus DSM 14675) (protein)
chain: MKPTLTVIGAGRMGSALIKAFLQSGYTTTVWNRTKAKSEPLAKLGAHLADTVRDAVKRSDIIVVNVLDYDTSDQLLRQDEVTRELRGKLLVQLTSGSPALAREQETWARQHGIDYLDGAIMATPDFIGQAECALLYSGSAALFEKHRAVLNVLGGATSHVGEDVGHASALDSALLFQMWGTLFGTLQALAISRAEGIPLEKTTAFIKLTEPVTQGAVADVLTRVQQNRLTADAQTLASLEAHNVAFQHLLALCEERNIHRGVADAMYSVIREAVKAGHGKDDFAILTRFLK
Turning to B2, in series [2], the Km turned out to be 3.56 mM mM and the kcat is recorded as 89.8 min-1 min-1.

B3: Myxococcus stipitatus imine reductase (MsIRED) variant MsIRED-s (pLS133_1), N32E/R33V/T34R/K37R, SEQ ID NO: 35 (Myxococcus stipitatus DSM 14675; … (protein)
chain: MKPTLTVIGAGRMGSALIKAFLQSGYTTTVWEVRKARSEPLAKLGAHLADTVRDAVKRSDIIVVNVLDYDTSDQLLRQDEVTRELRGKLLVQLTSGSPALAREQETWARQHGIDYLDGAIMATPDFIGQAECALLYSGSAALFEKHRAVLNVLGGATSHVGEDVGHASALDSALLFQMWGTLFGTLQALAISRAEGIPLEKTTAFIKLTEPVTQGAVADVLTRVQQNRLTADAQTLASLEAHNVAFQHLLALCEERNIHRGVADAMYSVIREAVKAGHGKDDFAILTRFLK
In the case of B3, in series [3], the Km stood at 19.57 mM mM and the kcat turned out to be 78.1 min-1 min-1.

For the origin of these results see patent US20210277441A1, “METHOD OF SELECTING A POLYPEPTIDE OF INTEREST” (IMPERIAL COLLEGE INNOVATIONS LIMITED, priority 2018, published 2021).
